Results on 5 molecules are retold here after US20250109212A1 (BIOSION, published 2025).

The term Kd denotes a measure of binding affinity in units of concentration. A word on the koff: it is the rate constant with which the complex falls apart. The kon is the rate constant with which the complex forms. For orientation: IC50 means the concentration that inhibits the measured activity by half. Read a high IC50 as lower potency. Usually EC50 stands for the concentration that produces a half-maximal response. Higher therefore signals lower potency in that assay.

Experiment [1] deals with T1, human CD47-his protein (Cat #: CD7-H5227, Acro biosystems) (human, UniProt Q08722 19-139).
T1 construct: Bought protein
The experiment is described as follows: SPR (Biacore T200), sample on Protein A chip, antigen-his analyte, 1:1 fit. The source says: (§1) The purified recombinant fusion proteins were characterized for their binding affinity and binding kinetics by Biacore T200 system (GE healthcare, Pittsburgh, PA, USA). The anti-CD40 antibody HuCD40-C1H1-V2 (having the heavy chain and the light chain of SEQ ID NOs: 19 and 20), Selicrelumab (an agonistic anti-CD40 antibody, Roche Inc., prepared in-house with heavy and light chains of SEQ ID NOs: 27 and 28), and SIRPα-Fc fusion proteins, including SIRPαV2D1M1-Fc (IgG2) (SEQ ID NO: 21, X1=I, X2=R, X3=T, X4=K, X5=F), SIRPαV2D1M2-Fc (IgG2) (SEQ ID NO: 21, X1=I, X2=R, X3=T, X4=R, X5=V), SIRPα-isoform2-Fc (SEQ ID NO: 25) were used as positive controls.
(§2) A Protein A chip (Cat #: 29-1275-56, GE healthcare) was used for affinity determination. The recombinant fusion proteins of the disclosure and the positive controls each at the concentration of 2 μg/ml were respectively flowed onto the chip at a flow rate of 10 μl/min. Then, serially diluted recombinant human CD40-his proteins (Cat #: CD0-H5228, Acro biosystems), human CD47-his proteins (Cat #: CD7-H5227, Acro biosystems), cynomolgus CD40-his proteins (Biosion in house made, SEQ ID NO: 29) or cynomolgus CD47-his proteins (Cat #: CD7-C52H1, Acro biosystems), 2-fold dilution in HBS-EP⁺ buffer (provided by Biacore) with a starting concentration of 200 nM, were flowed onto the chip at a flow rate of 30 μl/min. The association kinetics was followed for 2 minutes and the dissociation kinetics was followed for 10 minutes. The association and dissociation curves were fit to a 1:1 Langmuir binding model using the Biacore evaluation software.
In general terms: In SPR one partner is held on a chip, and binding of the other changes the refractive index at the surface.

Experiment [2] has as its target T2, cynomolgus CD47-his protein (Cat #: CD7-C52H1, Acro biosystems) (cynomolgus, UniProt A0A2K5X523 19-139).
T2 construct: Bought protein; also called Cyno CD47-his
The experiment is described as above.
Source text: as §1, §2

The target in experiment [3] is T3, biotin-labeled human CD47-Fc (Biosion in house made) (human, biotin-labeled (sites not given)).
T3 construct: also called Human CD47-Fc protein
The experiment is described as follows: competitive ELISA: binder premixed with biotin-labeled human CD47-Fc, blocked partner coated human CD172a-Fc, OD(450-630). On the procedure:
The ability of the recombinant fusion proteins of the disclosure to block CD47-CD172a binding was measured in a competitive ELISA assay. Briefly, 100 μl/well human CD172a-Fc proteins (prepared in-house with amino acid sequence of SEQ ID NO: 24) were coated on 96-well micro plates at 2 μg/mL in coating buffer (carbonate/bicarbonate buffer) and incubated overnight at 4° C. The next day, the plates were washed once with wash buffer (PBS+0.05% v/v Tween-20, PBST), and then blocked with 5% w/v non-fatty milk in PBST for 2 hours at 37° C. The plates were then washed 4 times using wash buffer.
Serially diluted recombinant fusion proteins of the disclosure or controls (starting at 100 nM with a 5-fold serial dilution) were mixed with 20 ng/ml biotin-labeled human CD47-Fc (Biosion in house made, SEQ ID NO: 23) in PBST with 2.5% w/v non-fatty milk. The mixtures were incubated at 37° C. for 40 minutes, and respectively added to the CD172a-Fc bound plates, 100 μl per well. The plates were incubated at 37° C. for 40 minutes, washed 4 times using wash buffer, added with 100 μl/well streptavidin conjugated HRP (1:10000 dilution in PBST buffer, Cat #: 016-030-084, Jackson ImmunoResearch), incubated for 40 minutes at 37° C., and washed again using wash buffer. […] The plates were read on a microplate reader using the dual wavelength mode with 450 nm for TMB and 630 nm as the reference wavelength, and the OD (450-630) values were plotted against the recombinant fusion protein or controls concentration. Data was analyzed using Graphpad Prism and IC₅₀ values were reported. Wild-type SIRPαV2D1-Fc (IgG2) (SEQ ID NO: 21, X1=V, X2=K, X3=S, X4=K, X5=F) was used as a positive control.
(An ELISA detects its analyte on a solid surface through an enzyme-linked reagent.)

Experiment [4] addresses T4, full length human CD40 (uniprot #P25942-1) on 293T-CD40 cells (human, UniProt P25942 21-277).
T4 construct: whole, on cells
The experiment is described as follows: FACS on 293T-CD40 cells, detection with goat anti-human IgG (Fab)-PE, MFI. On the procedure:
Following an incubation of 40 minutes at 4° C. in dark, cells were washed three times and resuspended in FACS buffer. Fluorescence was measured using a Becton Dickinson FACS Canto II-HTS equipment and plotted against the recombinant fusion protein or controls concentration. Data was analyzed using Graphpad Prism and EC₅₀ values were reported.

For experiment [5], the target named is human CD40-Fc protein (prepared in-house) (human). Put plainly: competitive ELISA: human CD40-Fc coated, blocked ligand biotin-labeled human CD40L-his, OD(450-630). On the procedure: The ability of the recombinant fusion proteins of the disclosure to block CD40-CD40L binding was measured in a competitive ELISA assay. Briefly, 100 μl/well human CD40-Fc proteins (prepared in-house with amino acid sequence of SEQ ID NO: 22) were coated on 96-well micro plates at 2 μg/mL in coating buffer (carbonate/bicarbonate buffer) and incubated overnight at 4° C. The next day, the plates were washed once with wash buffer (PBS+0.05% v/v Tween-20, PBST), and then blocked with 5% w/v non-fatty milk in PBST for 2 hours at 37° C. The plates were then washed 4 times using the wash buffer.
Serially diluted recombinant fusion proteins of the disclosure or controls (starting at 10 µg/mL with a 5-fold serial dilution) in PBST with 2.5% w/v non-fatty milk were added to the CD40-Fc bound plates, 100 μl per well, and incubated at 37° C. for 40 minutes. The plates were washed 4 times using wash buffer, and then added and incubated for 40 minutes at 37° C. with 100 μl/well 95 ng/mL biotin-labeled human CD40L-his protein (Cat #: 10239-H08E, Sino biological). The plates were washed again using wash buffer, added with 100 μl/well streptavidin conjugated HRP (1:10000 dilution in PBST buffer, Cat #: 016-030-084, Jackson ImmunoResearch) and incubated for 40 minutes at 37° C. The plates were washed again using wash buffer. […] The absorbance was read on a microplate reader using the dual wavelength mode with 450 nm for TMB and 630 nm as the reference wavelength, then the OD (450-630) values were plotted against the recombinant fusion protein or controls concentration. Data was analyzed using Graphpad Prism and IC₅₀ values were reported.

Experiment [6] deals with T5, recombinant human CD40-his protein (Cat #: CD0-H5228, Acro biosystems) (human, UniProt P25942 21-193).
T5 construct: Bought protein
Put plainly: SPR (Biacore T200), sample on Protein A chip, antigen-his analyte, 1:1 fit.
Source text: as §1, §2

The target of experiment [7] is T6, cynomolgus CD40-his protein (Biosion in house made) (cynomolgus, UniProt P25942 21-191 (human entry), limits assumed).
T6 construct: also called Cyno CD40-his
T6 chain: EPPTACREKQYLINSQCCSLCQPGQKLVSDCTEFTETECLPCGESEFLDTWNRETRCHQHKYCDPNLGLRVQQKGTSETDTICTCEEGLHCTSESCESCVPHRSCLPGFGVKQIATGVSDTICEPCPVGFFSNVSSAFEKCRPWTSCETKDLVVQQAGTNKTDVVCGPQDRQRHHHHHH
The description is as above.
Source text: as §1, §2

B1: SIRPαV2D1M1-Fc (IgG2) (Fc fusion)
chain: EEELQVIQPDKSVSVAAGESAILHCTITSLIPVGPIQWFRGAGPARELIYNQREGHFPRVTTVSETTKRENMDFSISISNITPADAGTYYCVKFRKGSPDTEFKSGAGTELSVRAKPSAPVVSGPAARATPGGGGSGGGGSERKCCVECPPCPAPPVAGPSVFLFPPKPKDTLMISRTPEVTCVVVDVSHEDPEVQFNWYVDGVEVHNAKTKPREEQFNSTFRVVSVLTVVHQDWLNGKEYKCKVSNKGLPAPIEKTISKTKGQPREPQVYTLPPSREEMTKNQVSLTCLVKGFYPSDIAVEWESNGQPENNYKTTPPMLDSDGSFFLYSKLTVDKSRWQQGNVFSCSVMHEALHNHYTQKSLSLSPGK
notes: also called SIRPαV2M1-Fc(IgG2)
In experiment [1], B1 returned a Kd of 0.952 nM, a koff of 0.000401 s⁻¹ and a kon of 421000 M⁻¹ s⁻¹. Besides, in experiment [2], the dissociation constant Kd came to 4.88 nM, the off-rate (koff) worked out at 0.000371 s⁻¹ and the association rate constant (kon) was 76000 M⁻¹ s⁻¹. The molecule further had an IC50 in experiment [3] of 8.87 nM.

B2: SIRPαV2D1M2-Fc (IgG2) (Fc fusion)
chain: EEELQVIQPDKSVSVAAGESAILHCTITSLIPVGPIQWFRGAGPARELIYNQREGHFPRVTTVSETTRRENMDFSISISNITPADAGTYYCVKFRKGSPDTEVKSGAGTELSVRAKPSAPVVSGPAARATPGGGGSGGGGSERKCCVECPPCPAPPVAGPSVFLFPPKPKDTLMISRTPEVTCVVVDVSHEDPEVQFNWYVDGVEVHNAKTKPREEQFNSTFRVVSVLTVVHQDWLNGKEYKCKVSNKGLPAPIEKTISKTKGQPREPQVYTLPPSREEMTKNQVSLTCLVKGFYPSDIAVEWESNGQPENNYKTTPPMLDSDGSFFLYSKLTVDKSRWQQGNVFSCSVMHEALHNHYTQKSLSLSPGK
notes: also called SIRPαV2M2-Fc(IgG2)
In experiment [1], B2 returned an equilibrium dissociation constant (Kd) of 1.07 nM, a dissociation rate constant (koff) of 0.000417 s⁻¹ and a kon of 388000 M⁻¹ s⁻¹. Moreover, in experiment [2], the Kd is 7.01 nM, the koff was found to be 0.000438 s⁻¹ and the association rate constant (kon) was determined as 62400 M⁻¹ s⁻¹. Also, the half-inhibitory concentration (IC50) in experiment [3] was determined as 11.8 nM.

B3: BSI038×S-001 (bispecific antibody, human IgG2, kappa)
heavy: not shown
light: EIVLTQSPATLSLSPGERATLSCRASQTINNNLHWYQQKPGQAPRLLIKYASQSISGIPARFSGSGSGTDFTLTISSLEPEDFAVYFCQQFSSWPLTFGGGTKVEIKRTVAAPSVFIFPPSDEQLKSGTASVVCLLNNFYPREAKVQWKVDNALQSGNSQESVTEQDSKDSTYSLSSTLTLSKADYEKHKVYACEVTHQGLSSPVTKSFNRGEC
notes: Wild-type SIRPαV2D1 linked to C-terminus of each heavy chain of HuCD40-C1H1-V2 (human IgG2)
Regarding B3, the EC50 in experiment [4] amounted to 1.45 nM. For the same molecule, the IC50 in experiment [5] was approximately 2.21 nM. In experiment [6], the dissociation constant Kd amounted to 0.771 nM, the koff stood at 0.00188 s⁻¹ and the on-rate constant (kon) was determined as 2.44e+06 M⁻¹ s⁻¹.

B4: Selicrelumab (antibody, human IgG2, kappa, V domains shown)
VH: not shown
VL: DIQMTQSPSSVSASVGDRVTITCRASQGIYSWLAWYQQKPGKAPNLLIYTASTLQSGVPSRFSGSGSGTDFTLTISSLQPEDFATYYCQQANIFPLTFGGGTKVEIKR
notes: Agonistic anti-CD40 antibody, prepared in-house
In experiment [4], B4 returned a concentration for a half-maximal effect (EC50) of 2.28 nM. Further, the concentration for half-maximal inhibition (IC50) in experiment [5] was 3.33 nM. For the same molecule, in experiment [6], the Kd came out at 6.41 nM, the koff is 0.00231 s⁻¹ and the association rate constant (kon) is 360000 M⁻¹ s⁻¹. In addition, in experiment [7], the Kd was found to be 16.8 nM, the koff is 0.00219 s⁻¹ and the on-rate (kon) came out at 131000 M⁻¹ s⁻¹.

B5: BSI038×S-003 (bispecific antibody, human IgG2, kappa)
heavy: EVQLVESGGGLVKPGGSLRLSCAASGFTFSNYGISWVRQAPGKGLEWVSSISSGGDNTYYPDNVKGRFTISRDNAKNSLYLQMNSLRAEDTAVYYCARAGEKAMDYWGQGTLVTVSSASTKGPSVFPLAPCSRSTSESTAALGCLVKDYFPEPVTVSWNSGALTSGVHTFPAVLQSSGLYSLSSVVTVPSSNFGTQTYTCNVDHKPSNTKVDKTVERKCCVECPPCPAPPVAGPSVFLFPPKPKDTLMISRTPEVTCVVVDVSHEDPEVQFNWYVDGVEVHNAKTKPREEQFNSTFRVVSVLTVVHQDWLNGKEYKCKVSNKGLPAPIEKTISKTKGQPREPQVYTLPPSREEMTKNQVSLTCLVKGFYPSDIAVEWESNGQPENNYKTTPPMLDSDGSFFLYSKLTVDKSRWQQGNVFSCSVMHEALHNHYTQKSLSLSPGK
light: not shown
notes: Wild-type SIRPαV2D1 linked to C-terminus of each light chain of HuCD40-C1H1-V2 (human IgG2)
In experiment [4], B5 gave a 50% effective concentration (EC50) of 1.54 nM. In experiment [5], this molecule displayed an IC50 of 2.93 nM. Besides, in experiment [6], the equilibrium dissociation constant (Kd) came to 0.71 nM, the koff is 0.00183 s⁻¹ and the on-rate (kon) stood at 2.57e+06 M⁻¹ s⁻¹.
